For one experiment, the target named is T1, FAP (UniProt Q12884 1-760, limits assumed).
T1 construct: whole, on cells; also called FAP on HT1080-FAP cells
Briefly: flow cytometry, serial dilution on HT1080-FAP cells (FAP-expressing), PE anti-human Fc detection. On the procedure: Binding of trivalent, bispecific fusion proteins to FAP-expressing (HT1080-FAP) cell lines was analyzed by flow cytometry. 2×10⁵ cells/well were incubated with a serial dilution of trivalent, bispecific antibodies for 1 h at 4° C. followed by detection using a PE-conjugated anti-human Fc antibody (Jackson ImmunoResearch Laboratories Inc).
(In general: A flow cytometer gives signals particle by particle.)

For experiment [1], the target named is T2, EGFR (UniProt P00533 25-1210, limits assumed).
T2 construct: whole, on cells; the cell lines are human tumor lines
Briefly: flow cytometry, serial dilution on FaDu cells (EGFR-expressing), PE anti-human Fc detection. On the procedure: (§1) Binding analysis of the trivalent, bispecific antibodies was performed by flow cytometry using tumor cell lines with different EGFR-expression levels (FIG. 20) (Table 12). Adherent cells were washed with PBS and shortly trypsinized at 37° C. Trypsin was quenched with FCS-containing medium and removed by centrifugation (500×g, 5 min.). Target cells (FaDu, LIM1215, SKBR-3, T-47-D, MCF-7 and Jurkat cells) at 1×10⁵ cells/well were incubated with a serial dilution of trivalent, bispecific antibodies for 1 h at 4° C. After removing excess of recombinant protein by washing with PBA (PBS, 2% FBS, and 0.02% sodium azide), bound protein was detected using PE-conjugated anti-human Fc mAb (Jackson ImmunoResearch Laboratories Inc). Fluorescence was measured using MACSquant VYB (Miltenyi Biotec) and data were analyzed using FlowJo (Tree Star). Relative median fluorescence intensities (MFI) were calculated as followed: relative MFI=((MFIₛₐₘₚₗₑ-(MFIdetection-MFIcells))/MFIcells).

Experiment [2] addresses T2, EGFR. Nature of the experiment: flow cytometry, serial dilution on MCF-7 cells (EGFR-expressing), PE anti-human Fc detection. On the procedure:
as §1

Experiment [3] addresses T2, EGFR. Nature of the experiment: flow cytometry, serial dilution on SKBR-3 cells (EGFR-expressing), PE anti-human Fc detection. On the procedure: as §1
The target of experiment [4] is T2, EGFR. Nature of the experiment: flow cytometry, serial dilution on T-47-D cells (EGFR-expressing), PE anti-human Fc detection. On the procedure: as §1
Experiment [5] concerns the target T2, EGFR. Nature of the experiment: flow cytometry, serial dilution on LIM1215 cells (EGFR-expressing), PE anti-human Fc detection. On the procedure:
as §1

In patent publication US20220396635A1 (UNIVERSIT T STUTTGART, published 2022) one finds EC50 data, which are given here for four molecules.

The EC50 is the midpoint of the concentration-response curve.

B1: scDb/scFv-Fc (1-2)+1, trivalent bispecific anti-FAPxanti-CD3 (bispecific antibody)
chain 1: QVQLVQSGAEVKKPGASVKVSCKASGYTFTENIIHWVRQAPGQGLEWMGWFHPGSGSIKYNEKFKDRVTMTADTSTSTVYMELSSLRSEDTAVYYCARHGGTGRGAMDYWGQGTLVTVSSGGGGSDIQMTQSPSSLSASVGDRVTITCRASQDIRNYLNWYQQKPGKAPKLLIYYTSRLHSGVPSRFSGSGSGTDFTFTISSLQPEDIATYYCQQGNTLPWTFGQGTKLEIKRGGGGSGGGGSGGGGSQVQLVQSGAEVKKPGSSVKVSCKASGGTFSGYTMNWVRQAPGQGLEWMGLINPYKGVSTYNGKFKDRVTITADKSTSTAYMELSSLRSEDTAVYYCARSGYYGDSDWYFDVWGQGTLVTVSSGGGGSDIQMTQSPSSLSASVGDRVTITCRASKSVSTSAYSYMHWYQQKPGKAPKLLIYLASNLESGVPSRFSGSGSGTDFTLTISSLQPEDFATYYCQHSRELPYTFGQGTKLEIKRAAADKTHTCPPCPAPPVAGPSVFLFPPKPKDTLMISRTPEVTCVVVDVSHEDPEVKFNWYVDGVEVHNAKTKPREEQYNSTYRVVSVLTVLHQDWLNGKEYKCKVSNKGLPSSIEKTISKAKGQPREPQVCTLPPSRDELTKNQVSLSCAVKGFYPSDIAVEWESNGQPENNYKTTPPVLDSDGSFFLVSKLTVDKSRWQQGNVFSCSVMHEALHNHYTQKSLSLSPGK
chain 2: QVQLVQSGAEVKKPGASVKVSCKASGYTFTENIIHWVRQAPGQGLEWMGWFHPGSGSIKYNEKFKDRVTMTADTSTSTVYMELSSLRSEDTAVYYCARHGGTGRGAMDYWGQGTLVTVSSGGGGSGGGGSGGGGSDIQMTQSPSSLSASVGDRVTITCRASKSVSTSAYSYMHWYQQKPGKAPKLLIYLASNLESGVPSRFSGSGSGTDFTLTISSLQPEDFATYYCQHSRELPYTFGQGTKLEIKRAAADKTHTCPPCPAPPVAGPSVFLFPPKPKDTLMISRTPEVTCVVVDVSHEDPEVKFNWYVDGVEVHNAKTKPREEQYNSTYRVVSVLTVLHQDWLNGKEYKCKVSNKGLPSSIEKTISKAKGQPREPQVYTLPPCRDELTKNQVSLWCLVKGFYPSDIAVEWESNGQPENNYKTTPPVLDSDGSFFLYSKLTVDKSRWQQGNVFSCSVMHEALHNHYTQKSLSLSPGK
notes: The FAP site is hu36; also called scDbFAPxCD3-Fc(hole)Δab + scFvFAP-Fc(knob)Δab
In the case of B1, the EC50 with FAP was found to be 0.6 nM.

B2: scDb/Fab-Fc (1-2)+1, trivalent bispecific anti-FAPxanti-CD3 (bispecific antibody, human IgG1, kappa)
chain: QVQLVQSGAEVKKPGASVKVSCKASGYTFTENIIHWVRQAPGQGLEWMGWFHPGSGSIKYNEKFKDRVTMTADTSTSTVYMELSSLRSEDTAVYYCARHGGTGRGAMDYWGQGTLVTVSSGGGGSDIQMTQSPSSLSASVGDRVTITCRASQDIRNYLNWYQQKPGKAPKLLIYYTSRLHSGVPSRFSGSGSGTDFTFTISSLQPEDIATYYCQQGNTLPWTFGQGTKLEIKRGGGGSGGGGSGGGGSQVQLVQSGAEVKKPGSSVKVSCKASGGTFSGYTMNWVRQAPGQGLEWMGLINPYKGVSTYNGKFKDRVTITADKSTSTAYMELSSLRSEDTAVYYCARSGYYGDSDWYFDVWGQGTLVTVSSGGGGSDIQMTQSPSSLSASVGDRVTITCRASKSVSTSAYSYMHWYQQKPGKAPKLLIYLASNLESGVPSRFSGSGSGTDFTLTISSLQPEDFATYYCQHSRELPYTFGQGTKLEIKRAAADKTHTCPPCPAPPVAGPSVFLFPPKPKDTLMISRTPEVTCVVVDVSHEDPEVKFNWYVDGVEVHNAKTKPREEQYNSTYRVVSVLTVLHQDWLNGKEYKCKVSNKGLPSSIEKTISKAKGQPREPQVCTLPPSRDELTKNQVSLSCAVKGFYPSDIAVEWESNGQPENNYKTTPPVLDSDGSFFLVSKLTVDKSRWQQGNVFSCSVMHEALHNHYTQKSLSLSPGK
heavy: QVQLVQSGAEVKKPGASVKVSCKASGYTFTENIIHWVRQAPGQGLEWMGWFHPGSGSIKYNEKFKDRVTMTADTSTSTVYMELSSLRSEDTAVYYCARHGGTGRGAMDYWGQGTLVTVSSASTKGPSVFPLAPSSKSTSGGTAALGCLVKDYFPEPVTVSWNSGALTSGVHTFPAVLQSSGLYSLSSVVTVPSSSLGTQTYICNVNHKPSNTKVDKKVEPKSCDKTHTCPPCPAPPVAGPSVFLFPPKPKDTLMISRTPEVTCVVVDVSHEDPEVKFNWYVDGVEVHNAKTKPREEQYNSTYRVVSVLTVLHQDWLNGKEYKCKVSNKGLPSSIEKTISKAKGQPREPQVYTLPPCRDELTKNQVSLWCLVKGFYPSDIAVEWESNGQPENNYKTTPPVLDSDGSFFLYSKLTVDKSRWQQGNVFSCSVMHEALHNHYTQKSLSLSPGK
light: DIQMTQSPSSLSASVGDRVTITCRASKSVSTSAYSYMHWYQQKPGKAPKLLIYLASNLESGVPSRFSGSGSGTDFTLTISSLQPEDFATYYCQHSRELPYTFGQGTKLEIKRRTVAAPSVFIFPPSDEQLKSGTASVVCLLNNFYPREAKVQWKVDNALQSGNSQESVTEQDSKDSTYSLSSTLTLSKADYEKHKVYACEVTHQGLSSPVTKSFNRGEC
notes: also called scDbFAPxCD3-Fc(hole)Δab + VHFAP-CH1-Fc(knob)Δab + VLFAP-CLκ
The molecule B2 displayed an EC50 in the experiment with FAP of 0.5 nM.

B3: scDb/Fab-Fc (1-1)+2, trivalent bispecific anti-EGFRxanti-CD3 (bispecific antibody)
chain: EVQLVESGGGLVQPGGSLRLSCAASGFSLTNYGVHWVRQAPGKGLEWLGVIWSGGNTDYNTPFTSRFTISRDNSKNTLYLQMNSLRAEDTAVYYCARALTYYDYEFAYWGQGTTVTVSSGGGGSDIQLTQSPSFLSASVGDRVTITCRASQSIGTNIHWYQQKPGKAPKLLIKYASESISGVPSRFSGSGSGTEFTLTISSLQPEDFATYYCQQNNNWPTTFGAGTKLEIKRGGGGSGGGGSGGGGSEVQLVESGGGLVQPGGSLRLSCAASGFSLTNYGVHWVRQAPGKGLEWLGVIWSGGNTDYNTPFTSRFTISRDNSKNTLYLQMNSLRAEDTAVYYCARALTYYDYEFAYWGQGTTVTVSSGGGGSDIQLTQSPSFLSASVGDRVTITCRASQSIGTNIHWYQQKPGKAPKLLIKYASESISGVPSRFSGSGSGTEFTLTISSLQPEDFATYYCQQNNNWPTTFGAGTKLEIKRAAADKTHTCPPCPAPPVAGPSVFLFPPKPKDTLMISRTPEVTCVVVDVSHEDPEVKFNWYVDGVEVHNAKTKPREEQYNSTYRVVSVLTVLHQDWLNGKEYKCKVSNKGLPSSIEKTISKAKGQPREPQVCTLPPSRDELTKNQVSLSCAVKGFYPSDIAVEWESNGQPENNYKTTPPVLDSDGSFFLVSKLTVDKSRWQQGNVFSCSVMHEALHNHYTQKSLSLSPGK
heavy: QVQLVQSGAEVKKPGSSVKVSCKASGGTFSGYTMNWVRQAPGQGLEWMGLINPYKGVSTYNGKFKDRVTITADKSTSTAYMELSSLRSEDTAVYYCARSGYYGDSDWYFDVWGQGTLVTVSSASTKGPSVFPLAPSSKSTSGGTAALGCLVKDYFPEPVTVSWNSGALTSGVHTFPAVLQSSGLYSLSSVVTVPSSSLGTQTYICNVNHKPSNTKVDKKVEPKSCDKTHTCPPCPAPPVAGPSVFLFPPKPKDTLMISRTPEVTCVVVDVSHEDPEVKFNWYVDGVEVHNAKTKPREEQYNSTYRVVSVLTVLHQDWLNGKEYKCKVSNKGLPSSIEKTISKAKGQPREPQVYTLPPCRDELTKNQVSLWCLVKGFYPSDIAVEWESNGQPENNYKTTPPVLDSDGSFFLYSKLTVDKSRWQQGNVFSCSVMHEALHNHYTQKSLSLSPGK
light: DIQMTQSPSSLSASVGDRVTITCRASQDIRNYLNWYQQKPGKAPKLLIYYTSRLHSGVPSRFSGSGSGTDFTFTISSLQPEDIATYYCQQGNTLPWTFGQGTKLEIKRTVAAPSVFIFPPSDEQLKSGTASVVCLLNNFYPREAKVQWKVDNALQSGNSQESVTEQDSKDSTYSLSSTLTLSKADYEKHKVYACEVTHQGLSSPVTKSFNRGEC
In the case of B3, the EC50 worked out at 3.6 nM with EGFR [1]; 0.5 nM in the experiment with EGFR [2]; 0.8 nM with EGFR [3]; 0.2 nM with EGFR [4]; 2.6 nM with EGFR [5].

B4: scDb/scFv-Fc (1-1)+2, trivalent bispecific anti-EGFRxanti-CD3 (bispecific antibody)
chain 1: EVQLVESGGGLVQPGGSLRLSCAASGFSLTNYGVHWVRQAPGKGLEWLGVIWSGGNTDYNTPFTSRFTISRDNSKNTLYLQMNSLRAEDTAVYYCARALTYYDYEFAYWGQGTTVTVSSGGGGSDIQLTQSPSFLSASVGDRVTITCRASQSIGTNIHWYQQKPGKAPKLLIKYASESISGVPSRFSGSGSGTEFTLTISSLQPEDFATYYCQQNNNWPTTFGAGTKLEIKRGGGGSGGGGSGGGGSEVQLVESGGGLVQPGGSLRLSCAASGFSLTNYGVHWVRQAPGKGLEWLGVIWSGGNTDYNTPFTSRFTISRDNSKNTLYLQMNSLRAEDTAVYYCARALTYYDYEFAYWGQGTTVTVSSGGGGSDIQLTQSPSFLSASVGDRVTITCRASQSIGTNIHWYQQKPGKAPKLLIKYASESISGVPSRFSGSGSGTEFTLTISSLQPEDFATYYCQQNNNWPTTFGAGTKLEIKRAAADKTHTCPPCPAPPVAGPSVFLFPPKPKDTLMISRTPEVTCVVVDVSHEDPEVKFNWYVDGVEVHNAKTKPREEQYNSTYRVVSVLTVLHQDWLNGKEYKCKVSNKGLPSSIEKTISKAKGQPREPQVCTLPPSRDELTKNQVSLSCAVKGFYPSDIAVEWESNGQPENNYKTTPPVLDSDGSFFLVSKLTVDKSRWQQGNVFSCSVMHEALHNHYTQKSLSLSPGK
chain 2: DIQMTQSPSSLSASVGDRVTITCRASQDIRNYLNWYQQKPGKAPKLLIYYTSRLHSGVPSRFSGSGSGTDFTFTISSLQPEDIATYYCQQGNTLPWTFGQGTKLEIKRGGGGSGGGGSGGGGSQVQLVQSGAEVKKPGSSVKVSCKASGGTFSGYTMNWVRQAPGQGLEWMGLINPYKGVSTYNGKFKDRVTITADKSTSTAYMELSSLRSEDTAVYYCARSGYYGDSDWYFDVWGQGTLVTVSSAAADKTHTCPPCPAPPVAGPSVFLFPPKPKDTLMISRTPEVTCVVVDVSHEDPEVKFNWYVDGVEVHNAKTKPREEQYNSTYRVVSVLTVLHQDWLNGKEYKCKVSNKGLPSSIEKTISKAKGQPREPQVYTLPPCRDELTKNQVSLWCLVKGFYPSDIAVEWESNGQPENNYKTTPPVLDSDGSFFLYSKLTVDKSRWQQGNVFSCSVMHEALHNHYTQKSLSLSPGK
notes: also called scDbhu225xhu225-Fc(hole)Δab + scFvhuU3-Fc(knob)Δab
Take B4: the EC50 in the experiment with EGFR [1] amounted to 8.9 nM; in the experiment with EGFR [2], 0.8 nM; with EGFR [3], 2.8 nM; with EGFR [4], 0.4 nM; with EGFR [5] it was 4 nM.
